Data: patent publication US20040253247A1

T1: rat albumin (rat), P02770
T1 chain: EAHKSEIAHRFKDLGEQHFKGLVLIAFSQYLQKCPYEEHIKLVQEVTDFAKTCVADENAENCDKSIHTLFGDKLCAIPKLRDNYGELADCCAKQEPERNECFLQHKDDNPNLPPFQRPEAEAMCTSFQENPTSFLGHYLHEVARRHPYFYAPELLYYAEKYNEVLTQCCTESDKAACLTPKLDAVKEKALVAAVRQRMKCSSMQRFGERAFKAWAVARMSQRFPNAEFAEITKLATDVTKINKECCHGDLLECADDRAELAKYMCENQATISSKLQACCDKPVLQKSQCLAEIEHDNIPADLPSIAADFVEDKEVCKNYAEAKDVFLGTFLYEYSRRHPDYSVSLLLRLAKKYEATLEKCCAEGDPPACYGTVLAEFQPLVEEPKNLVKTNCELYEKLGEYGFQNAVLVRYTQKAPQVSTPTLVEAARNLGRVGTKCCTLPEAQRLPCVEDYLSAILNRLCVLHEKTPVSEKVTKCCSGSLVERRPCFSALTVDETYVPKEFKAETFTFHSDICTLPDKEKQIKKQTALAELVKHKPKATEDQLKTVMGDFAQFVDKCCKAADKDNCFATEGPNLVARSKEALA

T2: rabbit albumin (rabbit), P49065
T2 chain: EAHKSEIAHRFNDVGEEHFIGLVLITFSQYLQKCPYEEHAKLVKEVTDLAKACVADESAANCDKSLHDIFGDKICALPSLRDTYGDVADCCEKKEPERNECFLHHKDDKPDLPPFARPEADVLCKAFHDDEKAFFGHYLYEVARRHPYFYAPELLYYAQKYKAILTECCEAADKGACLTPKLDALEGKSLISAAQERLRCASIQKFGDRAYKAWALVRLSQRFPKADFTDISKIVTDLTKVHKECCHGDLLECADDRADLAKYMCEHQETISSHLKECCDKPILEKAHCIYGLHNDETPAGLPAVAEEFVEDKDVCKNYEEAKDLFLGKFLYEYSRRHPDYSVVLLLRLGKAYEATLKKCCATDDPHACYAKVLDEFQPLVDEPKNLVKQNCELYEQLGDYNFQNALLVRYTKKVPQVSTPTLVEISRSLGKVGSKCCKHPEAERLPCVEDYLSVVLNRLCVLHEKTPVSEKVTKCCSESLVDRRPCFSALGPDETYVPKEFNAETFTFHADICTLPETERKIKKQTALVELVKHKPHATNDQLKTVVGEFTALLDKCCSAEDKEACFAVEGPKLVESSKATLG


Experiments:
Experiment in all cases: SA08b binding assay: competition with biotinylated SA08b for immobilized albumin
[1] = target: T1, rat albumin (rat), P02770
[2] = target: T2, rabbit albumin (rabbit), P49065
[3] = target: mouse albumin (mouse), P07724
mouse albumin (mouse), P07724, sequence (P07724 25-608 limits assumed): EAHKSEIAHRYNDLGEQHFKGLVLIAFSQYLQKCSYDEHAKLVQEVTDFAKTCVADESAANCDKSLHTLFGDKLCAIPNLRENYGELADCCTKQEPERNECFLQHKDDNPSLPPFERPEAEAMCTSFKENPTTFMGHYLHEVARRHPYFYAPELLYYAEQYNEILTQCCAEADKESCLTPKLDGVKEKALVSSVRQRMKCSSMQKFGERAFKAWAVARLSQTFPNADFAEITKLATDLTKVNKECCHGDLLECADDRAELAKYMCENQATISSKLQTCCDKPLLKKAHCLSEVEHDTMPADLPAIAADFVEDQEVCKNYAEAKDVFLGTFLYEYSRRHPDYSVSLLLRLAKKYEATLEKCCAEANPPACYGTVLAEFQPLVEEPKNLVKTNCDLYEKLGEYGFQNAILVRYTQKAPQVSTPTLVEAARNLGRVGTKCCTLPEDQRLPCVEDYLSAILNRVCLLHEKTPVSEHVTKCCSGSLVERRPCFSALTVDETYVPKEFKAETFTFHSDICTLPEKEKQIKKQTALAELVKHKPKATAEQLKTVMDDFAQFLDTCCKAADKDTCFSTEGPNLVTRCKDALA

Row | IC50 [1] [nM] | IC50 [2] [nM] | IC50 [3] [nM] | Binder
1 | 77 | 86 | 4 | RLMEDICLPRWGCLWEDD (modifications not checked) [SA10]
2 | 2480 | 3200 | 188 | RLMEDICLARWGCLWEDD (modifications not checked) [SA13]
